For this assay, the target named is T1, ProteinA (UniProt P38507).
T1 construct: the form on the sensor is not described; Sensor-chip Protein A is probably a recombinant form; also called ProteinA sensor chip; ProteinA-CM5; source: on SPR sensor chips (ProteinA chip or ProteinA-conjugated CM5 chip)
As to the kind of experiment: SPR; calibration-free concentration analysis (CFCA) on Biacore T200, 1x PBST; NISTmAb 8671 as analyte over ProteinA/ProteinG sensors to assign form factors. Particulars: both partners purified.

B1: NISTmAb 8671 (antibody, V domains shown)
VH: QVTLRESGPALVKPTQTLTLTCTFSGFSLSTAGMSVGWIRQPPGKALEWLADIWWDDKKHYNPSLKDRLTISKDTSKNQVVLKVTNMDPADTATYYCARDMIFNFYFDVWGQGTTVTVSS
VL: DIQMTQSPSTLSASVGDRVTITCSASSRVGYMHWYQQKPGKAPKLLIYDTSKLASGVPSRFSGSGSGTEFTLTISSLQPDDFATYYCFQGSGYPFTFGGGTKVEIK
In the case of B1, the binding result is given as “binds”.

(Values after paper PMC11044105, “Overcoming Lot-to-Lot Variability in Protein Activity Using Epitope-Specific Calibration-Free Concentration Analysis” (Analytical Chemistry, 2024).)
